B1: GLuc2-NS2 (hepatitis C virus nonstructural 2 protein, wild type) [hepatitis C virus (J6/JFH genome)] / GLuc1-tagged μ subunit of the AP-4 complex [not stated] (parent complex)
chain 1: YDASVHGQIGAALLVLITLFTLTPGYKTLLSRFLWWLCYLLTLAEAMVQEWAPPMQVRGGRDGIIWAVAIFCPGVVFDITKWLLAVLGPAYLLKGALTRVPYFVRAHALLRMCTMVRHLAGGRYVQMVLLALGRWTGTYIYDHLTPMSDWAANGLRDLAVAVEPIIFSPMEKKVIVWGAETAACGDILHGLPVSARLGREVLLGPADGYTSKGWSLL
chain 2: MISQFFILSSKGDPLIYKDFRGDSGGRDVAELFYRKLTGLPGDESPVVMHHHGRHFIHIRHSGLYLVVTTSENVSPFSLLELLSRLATLLGDYCGSLGEGTISRNVALVYELLDEVLDYGYVQTTSTEMLRNFIQTEAVVSKPFSLFDLSSVGLFGAETQQSKVAPSSAASRPVLSSRSDQSQKNEVFLDVVERLSVLIASNGSLLKVDVQGEIRLKSFLPSGSEMRIGLTEEFCVGKSELRGYGPGIRVDEVSFHSSVNLDEFESHRILRLQPPQGELTVMRYQLSDDLPSPLPFRLFPSVQWDRGSGRLQVYLKLRCDLLSKSQALNVRLHLPLPRGVVSLSQELSSPEQKAELAEGALRWDLPRVQGGSQLSGLFQMDVPGPPGPPSHGLSTSASPLGLGPASLSFELPRHTCSGLQVRFLRLAFRPCGNANPHKWVRHLSHSDAYVIRI

Variants of: B1
Assay: PCA (protein-fragment complementation assay); parent: 1; read off a plot
Variant chain 1 L202A has a ratio to parent of about 0.57. chain 1 L216A gave a ratio to parent of about 0.56. chain 1 D207A was tested, and the ratio to parent was about 0.6. In the case of chain 1 L217A, the ratio to parent is reported as about 0.52. chain 1 E200A showed a ratio to parent of about 1. For chain 1 L203A, the ratio to parent was about 0.62.

From paper PMC5850324, “Interactions between the Hepatitis C Virus Nonstructural 2 Protein and Host Adaptor Proteins 1 and 4 Orchestrate Virus Release” (mBio, 2018)
